Laboratory results reported in article PMC9280364, “MdNAC4 Interacts With MdAPRR2 to Regulate Nitrogen Deficiency-Induced Leaf Senescence in Apple (Malus domestica)”.

T1: MdNAC4-GST (Malus domestica, UniProt B6DXL4 1-350)
T1 sequence: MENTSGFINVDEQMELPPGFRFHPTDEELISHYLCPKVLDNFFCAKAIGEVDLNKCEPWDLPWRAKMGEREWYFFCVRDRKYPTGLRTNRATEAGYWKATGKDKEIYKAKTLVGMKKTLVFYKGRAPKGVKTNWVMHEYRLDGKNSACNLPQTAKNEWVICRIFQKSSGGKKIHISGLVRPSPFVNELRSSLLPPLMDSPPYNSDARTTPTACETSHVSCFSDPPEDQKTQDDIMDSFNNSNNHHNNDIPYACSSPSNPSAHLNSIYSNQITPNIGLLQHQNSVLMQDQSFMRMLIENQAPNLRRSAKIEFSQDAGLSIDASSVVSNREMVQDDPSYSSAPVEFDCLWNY

B1: MdNYC1 promoter probe (ABRE) (dsDNA)
DNA 1: ATATAGGCACGTGAAGGGAGGACAGAGATG
DNA 2: CATCTCTGTCCTCCCTTCACGTGCCTATAT
B2: MdPAO Mut probe (dsDNA)
DNA 1: AGTTATCCATCCGTCTAAAACCAAT
DNA 2: ATTGGTTTTAGACGGATGGATAACT
B3: MdPAO promoter probe (ABRE) (dsDNA)
DNA 1: AGTTATCCATACGTGTAAAACCAAT
DNA 2: ATTGGTTTTACACGTATGGATAACT

Legend:
MdNAC4-GST [1] = molecular target: T1, MdNAC4-GST; test: EMSA; unlabeled probe competes; EMSA binding buffer (composition not given), 24 °C, 30 min in the dark; conditions: protein: recombinant; tags: GST (pGEX-4T-1 type primers GST-MdNAC4-F/R); chain copies: 2; label: biotin; blunt
MdNAC4-GST [2] = molecular target: T1, MdNAC4-GST; test: EMSA; EMSA binding buffer (composition not given), 24 °C, 30 min in the dark; conditions: protein: recombinant; tags: GST (pGEX-4T-1 type primers GST-MdNAC4-F/R); chain copies: 2; blunt

Binder	binding result (MdNAC4-GST [1])	binding result (MdNAC4-GST [2])
B1	binds	
B2		no binding
B3	binds	
